Data reported in paper PMC5414174, “DNA replication licensing factor Cdc6 and Plk4 kinase antagonistically regulate centrosome duplication via Sas-6” (Nature Communications, 2017).

Biological target: T1, GST-tagged Plk4 (human, UniProt O00444 1-970)
T1 construct: human Plk4, cloned from a cDNA library by PCR into pGEX 4T-1; also called GST-Plk4; source: E. coli BL21, purified (glutathione Sepharose 4B); not shown: GST, N-terminal, kept
T1 sequence (looked up): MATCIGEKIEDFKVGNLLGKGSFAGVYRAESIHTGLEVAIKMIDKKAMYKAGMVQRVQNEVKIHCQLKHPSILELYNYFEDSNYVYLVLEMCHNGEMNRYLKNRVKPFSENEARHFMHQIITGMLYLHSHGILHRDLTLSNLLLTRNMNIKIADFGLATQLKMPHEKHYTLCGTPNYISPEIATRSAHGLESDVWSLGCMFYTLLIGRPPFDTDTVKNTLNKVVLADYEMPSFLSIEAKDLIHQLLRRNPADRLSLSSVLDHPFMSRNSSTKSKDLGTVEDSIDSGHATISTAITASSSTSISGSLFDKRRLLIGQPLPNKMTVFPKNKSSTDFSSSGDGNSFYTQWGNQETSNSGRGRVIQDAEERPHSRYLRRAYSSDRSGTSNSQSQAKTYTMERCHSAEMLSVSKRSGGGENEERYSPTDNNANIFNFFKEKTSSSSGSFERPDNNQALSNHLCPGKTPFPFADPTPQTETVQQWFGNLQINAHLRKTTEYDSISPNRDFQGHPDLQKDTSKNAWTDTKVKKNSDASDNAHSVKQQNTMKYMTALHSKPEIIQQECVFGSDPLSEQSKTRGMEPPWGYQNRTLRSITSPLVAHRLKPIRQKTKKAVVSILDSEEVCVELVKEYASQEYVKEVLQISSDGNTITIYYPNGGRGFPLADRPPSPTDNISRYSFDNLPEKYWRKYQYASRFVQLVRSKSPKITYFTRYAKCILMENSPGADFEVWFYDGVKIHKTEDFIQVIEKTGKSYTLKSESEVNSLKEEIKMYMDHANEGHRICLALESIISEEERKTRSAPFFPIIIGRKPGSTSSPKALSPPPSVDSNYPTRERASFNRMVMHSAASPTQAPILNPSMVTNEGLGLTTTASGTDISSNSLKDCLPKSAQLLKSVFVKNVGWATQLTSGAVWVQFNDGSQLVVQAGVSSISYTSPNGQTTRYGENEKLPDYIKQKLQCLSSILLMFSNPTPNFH
Test: pull-down; Sepharose beads coupled with purified GST-Plk4 incubated with purified His-Cdc6; western blot with His antibody
Conditions: both partners purified

binding result: binds
B1: His-tagged Cdc6 (purified) (natural protein, human, UniProt Q99741 1-560, looked up)
chain: MPQTRSQAQATISFPKRKLSRALNKAKNSSDAKLEPTNVQTVTCSPRVKALPLSPRKRLGDDNLCNTPHLPPCSPPKQGKKENGPPHSHTLKGRRLVFDNQLTIKSPSKRELAKVHQNKILSSVRKSQEITTNSEQRCPLKKESACVRLFKQEGTCYQQAKLVLNTAVPDRLPAREREMDVIRNFLREHICGKKAGSLYLSGAPGTGKTACLSRILQDLKKELKGFKTIMLNCMSLRTAQAVFPAIAQEICQEEVSRPAGKDMMRKLEKHMTAEKGPMIVLVLDEMDQLDSKGQDVLYTLFEWPWLSNSHLVLIGIANTLDLTDRILPRLQAREKCKPQLLNFPPYTRNQIVTILQDRLNQVSRDQVLDNAAVQFCARKVSAVSGDVRKALDVCRRAIEIVESDVKSQTILKPLSECKSPSEPLIPKRVGLIHISQVISEVDGNRMTLSQEGAQDSFPLQQKILVCSLMLLIRQLKIKEVTLGKLYEAYSKVCRKQQVAAVDQSECLSLSGLLEARGILGLKRNKETRLTKVFFKIEEKEIEHALKDKALIGNILATGLP
notes: human Cdc6; also called His-Cdc6; source: E. coli BL21, purified (His60 Ni Superflow resin)
